# Experimental data: PMC6958441, “Role of the Metal Center in the Modulation of the Aggregation Process of Amyloid Model Systems by Square Planar Complexes Bearing 2-(2′-pyridyl)benzimidazole Ligands” (Pharmaceuticals, 2019)
# B1: NPM1_(264–277), fragment corresponding to the 2nd helix (residues 264–277) of the C-terminal domain of nucleophosmin 1 (peptide)
# peptide: Ac-VEAKFINYVKNCFR-NH2
# notes: The dimer seen by ESI-MS is held by a disulfide bridge through the single cysteine of the peptide; A species of 1874 Da (monomer adduct on the Cys) and oxidised forms were also in the sample; source: synthetic peptide, treated with HFIP, purified through RP-HPLC
# Target: the molecule itself
# Assay: ESI-MS; peptide alone (control) at 100 µM in 15 mM ammonium acetate pH 6.8, 25 °C, direct injection, Q-ToF; the dimer is also seen in the samples with the metal complexes 1-3
protein,measurement,value
B1,stoichiometry N,2
